Results published in article PMC5026484 (eLife, 2016).

B1: bMERB domain (Rab binding domain) of Mical-1, residues 918-1067 (domain or fragment, human, UniProt Q8TDZ2 918-1067, looked up)
chain: KEEEMKRFCKAQTIQRRLNEIEAALRELEAEGVKLELALRRQSSSPEQQKKLWVGQLLQLVDKKNSLVAEEAELMITVQELNLEEKQWQLDQELRGYMNREENLKTAADRQAEDQVLRKLVDLVNQRDALIRFQEERRLSELALGTGAQG
notes: Mical-1, human, bMERB domain, residues 918-1067 (isoform 1); Limits are stated for the crystallised construct; also called Mical-1_(918-1067); RBD of Mical-1
B2: bMERB domain (Rab binding domain) of EHBP1 (domain or fragment)
chain: not shown
notes: EHBP1 1047-1231 (bMERB domain with CaaX box) is named for the prenylation and localisation experiments only; also called RBD of EHBP1
B3: bMERB domain (Rab binding domain) of Mical-cL, residues 534-683 (domain or fragment, human, UniProt O94851 1796-1945, looked up)
chain: KQEELKRLYKAQAIQRQLEEVEERQRASEIQGVRLEKALRGEADSGTQDEAQLLQEWFKLVLEKNKLMRYESELLIMAQELELEDHQSRLEQKLREKMLKEESQKDEKDLNEEQEVFTELMQVIEQRDKLVDSLEEQRIREKAEDQHFES
notes: Mical C-terminal like protein (Mical-cL), human, bMERB domain, residues 534-683; Limits are stated for the crystallised construct; also called Mical-cL_(534-683); RBD of Mical-cL
B4: bMERB domain (Rab binding domain) of Mical-3, residues 1841-1990 (domain or fragment, human, UniProt Q7RTP6 1841-1990, looked up)
chain: KQEELKRLHRAQIIQRQLQQVEERQRRLEERGVAVEKALRGEAGMGKKDDPKLMQEWFKLVQEKNAMVRYESELMIFARELELEDRQSRLQQELRERMAVEDHLKTEEELSEEKQILNEMLEVVEQRDSLVALLEEQRLREREEDKDLEA
notes: Mical-3, human, whole predicted bMERB domain, residues 1841-1990 (isoform 1); printed elsewhere as 1841-1992; Limits are stated for the crystallised selenomethionine construct; also called Mical-3_(1841-1990); RBD of Mical-3
B5: Rab8a, full length, loaded with GppNHp (natural protein, human, UniProt P61006 1-207, looked up)
chain: MAKTYDYLFKLLLIGDSGVGKTCVLFRFSEDAFNSTFISTIGIDFKIRTIELDGKRIKLQIWDTAGQERFRTITTAYYRGAMGIMLVYDITNEKSFDNIRNWIRNIEEHASADVEKMILGNKCDVNDKRQVSKERGEKLALDYGIKFMETSAKANINVENAFFTLARDIKAKMDKKLEGNSPQGSNQGVKITPDQQKRSSFFRCVLL
notes: Rab8a, human; called Rab8 in the results and Rab8aFl in the crystallisation methods; also called Rab8aFl; source: expressed and purified as described previously (Bleimling et al., 2009), loaded with GppNHp, gel filtration

Legend:
Rab10 residues 1-175 = target: T1, Rab10 residues 1-175 (human, UniProt P61026 1-175); experiment: crystal structure; X-ray; sitting/hanging-drop vapour diffusion, 20°C; data from beamline X10SA, SLS; conditions: both partners purified
T1 construct: Rab10, human, residues 1-175; Used for the crystal of the 2:1 complex with Mical-1 918-1067; also called Rab10_(1-175); source: expressed and purified as described previously (Bleimling et al., 2009)
T1 sequence (looked up): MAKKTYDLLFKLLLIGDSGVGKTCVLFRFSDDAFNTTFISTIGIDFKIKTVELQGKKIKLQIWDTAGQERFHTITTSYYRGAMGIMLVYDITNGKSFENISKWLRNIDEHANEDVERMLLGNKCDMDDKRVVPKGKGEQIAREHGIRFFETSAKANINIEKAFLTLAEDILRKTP

[1] = target: B5; experiment: SEC; analytical size exclusion chromatography, Superdex S75 10/300 GL; 130 µM Rab:GppNHp + 112.5 µM (113 µM) bMERB domain; 20 mM Hepes pH 7.5, 50 mM NaCl, 2 mM DTE, 2 mM MgCl2; conditions: both partners purified
[2] = target: T2, Rab10, full length, loaded with GppNHp (human, UniProt P61026 1-200); experiment: as above; conditions: both partners purified
T2 construct: Rab10, human; Rab10Fl in the crystallisation methods; also called Rab10Fl; source: expressed and purified as described previously (Bleimling et al., 2009), loaded with GppNHp, gel filtration
T2 sequence (looked up): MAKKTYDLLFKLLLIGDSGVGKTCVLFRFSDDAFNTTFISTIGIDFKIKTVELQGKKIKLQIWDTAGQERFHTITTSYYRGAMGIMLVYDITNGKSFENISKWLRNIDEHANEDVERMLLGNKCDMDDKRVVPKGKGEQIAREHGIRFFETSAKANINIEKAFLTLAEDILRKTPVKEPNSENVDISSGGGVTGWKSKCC

[3] = target: B5; experiment: ITC; iTC200, 25°C; 400 µM Rab titrated into 20–40 µM bMERB domain in the cell; 20 mM Hepes pH 7.5, 50 mM NaCl, 2 mM MgCl2, 1 mM TCEP; conditions: both partners purified
[4] = target: T3, Rab13, loaded with GppNHp (UniProt P51153 1-203); experiment: as above; conditions: both partners purified
T3 construct: Rab13; also called Rab13:GppNHp; source: expressed and purified as described previously (Bleimling et al., 2009), loaded with GppNHp, gel filtration
T3 sequence (looked up): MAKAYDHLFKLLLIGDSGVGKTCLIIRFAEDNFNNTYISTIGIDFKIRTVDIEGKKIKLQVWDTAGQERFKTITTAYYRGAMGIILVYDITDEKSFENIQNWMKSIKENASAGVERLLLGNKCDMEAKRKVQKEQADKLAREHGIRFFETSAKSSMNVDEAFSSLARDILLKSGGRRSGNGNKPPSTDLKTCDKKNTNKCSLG

[5] = target: T2, Rab10, full length, loaded with GppNHp; experiment: as above; conditions: both partners purified
[6] = target: T4, Rab15, loaded with GppNHp (UniProt P59190 1-212); experiment: as above; conditions: both partners purified
T4 construct: Rab15; source: expressed and purified as described previously (Bleimling et al., 2009), loaded with GppNHp, gel filtration
T4 sequence (looked up): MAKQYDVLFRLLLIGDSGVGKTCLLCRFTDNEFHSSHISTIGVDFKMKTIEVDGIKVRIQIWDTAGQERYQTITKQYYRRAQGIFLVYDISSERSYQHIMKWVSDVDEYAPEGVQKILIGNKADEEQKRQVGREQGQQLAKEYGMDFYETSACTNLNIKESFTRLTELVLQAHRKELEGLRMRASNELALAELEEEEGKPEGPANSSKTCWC

[7] = target: the molecule itself; experiment: SEC; analytical size exclusion chromatography of the bMERB domain alone (112.5 µM); apparent size from the retention
[8] = target: B5; experiment: ITC; iTC200, 25°C; 400 µM Rab titrated into 20–40 µM bMERB domain in the cell; 20 mM Hepes pH 7.5, 50 mM NaCl, 2 mM MgCl2, 1 mM TCEP; conditions: both partners purified; remark: listed apart in the source
[9] = target: T3, Rab13, loaded with GppNHp; experiment: as above; conditions: both partners purified; remark: listed apart in the source
[10] = target: B4; experiment: as above; conditions: both partners purified
[11] = target: B1; experiment: as above; conditions: both partners purified
[12] = target: T5, bMERB domain (Rab binding domain) of EHBP1L1 (human, UniProt Q8N3D4 1340-1523); experiment: as above; conditions: both partners purified
T5 construct: EHBP1L1, human, bMERB domain; EHBP1L1 1340-1523 (bMERB domain with CaaX box) is named for the prenylation and localisation experiments only; also called RBD of EHBP1L1

[13] = target: B2; experiment: as above; conditions: both partners purified
[14] = target: B4; experiment: as above; conditions: both partners purified; remark: listed apart in the source
[15] = target: B3; experiment: as above; conditions: both partners purified
[16] = target: B1; experiment: as above; conditions: both partners purified; remark: listed apart in the source
[17] = target: T5, bMERB domain (Rab binding domain) of …; experiment: as above; conditions: both partners purified; remark: listed apart in the source
[18] = target: B4; experiment: SEC; analytical size exclusion chromatography with varying ratios of Rab8 and bMERB domain (1.2:1, 1.6:1, 2.2:1; effector 113 µM, Rab 130, 180 or 250 µM); stoichiometry from the peak of free excess Rab8; conditions: both partners purified

T5 sequence (Q8N3D4 1340-1523): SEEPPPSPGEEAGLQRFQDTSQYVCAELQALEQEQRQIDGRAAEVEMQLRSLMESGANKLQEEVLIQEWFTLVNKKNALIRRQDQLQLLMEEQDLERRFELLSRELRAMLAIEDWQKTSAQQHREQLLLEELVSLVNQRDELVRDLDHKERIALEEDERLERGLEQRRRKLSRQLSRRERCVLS

Binder: B1
binding result (Rab10 residues 1-175): binds | binding result [1]: binds | binding result [2]: binds

Binder: B2
Kd [3]: 0.397 µM

Binder: B3
Kd [3]: 0.253 µM | Kd [4]: 0.094 µM | Kd [5]: 0.79 µM | Kd [6]: 0.033 µM | stoichiometry N [7]: 2 | Kd [8]: 0.233 µM | Kd [9]: 0.093 µM

Binder: B4
stoichiometry N [7]: 2 | binding result [1]: binds | binding result [2]: binds

Binder: B5
KD,1 (two-site fit) [10]: 0.0279 µM | KD,1 (two-site fit) [11]: 0.0555 µM | KD,1 (two-site fit) [12]: 0.159 µM | stoichiometry N [13]: 1 | stoichiometry N [14]: 2 | stoichiometry N [15]: 1 | stoichiometry N [16]: 2 | stoichiometry N [17]: 2 | stoichiometry N [18]: 1
